The experiment has as its target molecules present at the cell surface of both cerebellar neurons and PC12 cells. Description: cell-based or functional assay.

Consider “purified recombinant human KAL protein (isolated from transfected CHO cells, clone CHKAL2-3/dll), coated on plastic (from UniProt P23352 25-680)”, for which the percentage of adherent cells (mouse cerebellar neurons on KAL-coated surface, 90 min) was 80%.

Values taken from patent US6548475.
